# Experimental data: the RNAGym collection of RNA variant scans (doi:10.7554/elife.80360)
# B1: HDV Ribozyme (parent)
# chain: GGCCGGCAUGGUCCCAGCCUCCUCGCUGGCGCCGGCUGGGCAACAUUCCGAGGGGACCGUCCCCUCGGUAAUGGCGAAUGGGACCCA
# Variants of: B1
# Experiment: self-cleavage, relative activity (ratio to wild type); higher = more cleavage; co-transcriptional
row,Variant,self-cleavage
1,A56C A70C,1.12
2,C30G C33U,0
3,A51G A56C,0.733
4,G10U G53A,0.769
5,G6C G54A,0.415
6,C4U C18U,0.323
7,A8U G28A,0.0369
8,U27A U79A,0.612
9,G76A U79C,0.964
10,C18G G73C,0.104
11,U9G G31A,0.675
12,G59U A70G,1.12
13,C22U G28U,0.148
14,G54C G68C,0.346
15,A16U G25C,0.32
16,C32U U46A,0.573
17,C15A G35U,0.188
18,C58A G80A,0.544
19,G11A G53A,0.437
20,G1C G38C,0
21,C44G A78U,0.19
22,C62A G76U,1.08
23,C14G A42C,0.0923
24,A42G G59U,0.608

row,Variant,self-cleavage
1,C24U G28C,0.0475
2,U9C C58G,1.14
3,U47C C63U,1.07
4,C14A A78U,0.0791
5,G50C G82U,0.217
6,C24G G74C,0.109
7,G76C C86U,0.886
8,C15A A16G,0.35
9,U23A U37C,1.08
10,C30A G59U,0.637
11,C36G G73A,0.0723
12,C4A G55U,0.237
13,U20G C62U,0.19
14,C13A A56G,0.101
15,G34U G50U,0.191
16,G10U G68C,0.564
17,U9C C24U,1.05
18,G5U A43G,0
19,U27A A70G,0.987
20,G11C G82A,0.262
21,U37C C86A,0.974
22,G76A C86U,0.92
23,C41U C49G,0.317
24,C21U A71G,0.243

row,Variant,self-cleavage
1,G40A C85A,0.859
2,U20G C63G,0.104
3,G28U G35A,0.0213
4,C26A G28C,0.0791
5,U9C A70G,1.25
6,C15G C75U,0.237
7,C21G A42C,0.166
8,A43U C75G,0.0639
9,C15G U27G,0.104
10,C4U G10A,0.35
11,G1U U47A,0.295
12,C22A C48G,0.363
13,U46A U79C,0.215
14,C19G U27G,0
15,C4A C14A,0.119
16,C36G G59U,0.199
17,C14G A83U,0.289
18,G73C U79A,0.302
19,C7A C66U,0.587
20,C3A G5A,0.0332
21,U20C C44A,0
22,G31C G76U,0.463
23,U23G U60C,0.831
24,G1A C33G,0.148

row,Variant,self-cleavage
1,A8U C48U,1.13
2,G50A C86U,1.06
3,C13U A16U,1.11
4,G68A A78U,0.277
5,U9C A87U,1.06
6,C7U C13G,0
7,C61G G67C,0.945
8,G2A U47C,0.0292
9,G1A U20A,0.0594
10,A42C C75U,0.148
11,U9A U60C,1.02
12,G50C U65G,0.453
13,C13A C58U,0.415
14,A56G U72C,0.782
15,U47G A87U,0.974
16,C3A U79G,0.175
17,A70G A71U,0.852
18,A43U C86U,0.563
19,G54A C58U,1.22
20,U23G A87C,0.799
21,C44U G54U,0.799
22,C14G C66G,0.391
23,C62A C75U,0.108
24,U23G G73U,0.0604

row,Variant,self-cleavage
1,C58G C86A,0.727
2,C15U C22G,0.147
3,G53A U60C,0.935
4,C30G U47A,0.0354
5,C30A A71U,0.386
6,C18A C24A,0.163
7,C14G G73A,0.222
8,G50C U69A,0.831
9,G52A A56C,1.11
10,C3U A45U,0.432
11,G2A A83U,0.119
12,C63U C84U,0.726
13,C44A A71G,0.427
14,C19G G73A,0.021
15,U12G C33U,0.277
16,G67C A83G,0.597
17,C7G U27A,0.217
18,G55C C58U,1.07
19,A16G G76C,1.12
20,U12C A78G,0.192
21,G25C U46A,0
22,U65A G68U,0.87
23,G31C C44A,0
24,C21G U60C,0.0489

row,Variant,self-cleavage
1,G52C A78U,0.315
2,U12A G80A,0.108
3,C36G G68C,0.17
4,C36G G68A,0.233
5,C32U G40A,0.987
6,C30U A71G,0.633
7,G10C G39A,0.259
8,A71C C85U,0.875
9,G68A C85U,0.95
10,G40U G54A,0.694
11,U12A C14G,0.145
12,G52A U65A,0.954
13,A8G U47G,0.782
14,G50U C64G,0.703
15,C21A C41U,0.181
16,C30U A51U,0.791
17,G38A G59U,0.182
18,U37A C48A,0.208
19,G28U C62G,0.0415
20,G38A G73C,0.13
21,G17U G40C,0.189
22,U47G C62G,0.534
23,C7U C22U,0.394
24,U23A G25U,0.104

row,Variant,self-cleavage
1,G5A G10U,0.188
2,G40C G76A,0.163
3,A45G C62A,0.975
4,G28C C66A,0.122
5,U12G U72C,0
6,C61A C62G,0.892
7,G68U G82C,0.215
8,G2A U9A,0.0773
9,C57A C85G,0.748
10,G73C G80C,0.109
11,A51U G53A,0.927
12,A16U U23A,0.739
13,C75A A87G,0.251
14,A8C C41G,0.457
15,A43U G50U,0.458
16,U23A U60A,0.98
17,U20G C49A,0.308
18,A45C U72G,1.11
19,C66U G81C,0.277
20,C19U G25C,0.0489
21,C24A C36G,0.0678
22,C24A C36U,0.254
23,C4A G17C,0.0386
24,G31A G39C,0.182

row,Variant,self-cleavage
1,G2A G11A,0.0786
2,G17U A83G,0.405
3,G29U G80U,0.0885
4,G35U A77G,0.305
5,G10A G40A,0.905
6,C22A C44U,0.0282
7,G50U G74A,0.453
8,U9A C75A,0.0573
9,A78U A87U,0.243
10,C15A G68A,0.511
11,A51C G80C,0.0437
12,G5A A87G,0.252
13,C3A C61G,0.512
14,C66G C84A,0.923
15,G2U G10U,0.038
16,C66U U72C,0.518
17,G53U C57A,0.944
18,G11A C66U,0.431
19,G29U U60G,0.175
20,G76A C84G,0.939
21,G2U C14U,0.0468
22,C26G U65G,1.09
23,C22U G53A,0.821
24,G10A A87G,0.857

row,Variant,self-cleavage
1,G67U A87C,0.925
2,A43G A70G,0.914
3,C49G A87U,0.913
4,A51U C66U,1.07
5,C32A G54U,0.102
6,C3U G74U,0.241
7,C14U C26G,0.76
8,C57A C84A,0.789
9,G29C G76A,0.0545
10,A8G G28U,0.185
11,C57G G80U,0.25
12,U65G G81A,0.282
13,C75A G76A,0.166
14,G1U G25A,0.354
15,G29C G81C,0.18
16,C48G G67A,0.91
17,C58U G82U,0.34
18,G28C G67A,0.0707
19,C24G C85A,0.141
20,C3G U9C,0.554
21,C33A G82A,0.102
22,A8C C57U,0.895
23,A42U C86A,0.492
24,G59U U72A,0.665

row,Variant,self-cleavage
1,C3A A45U,0.269
2,G1A C58A,0.0978
3,G2A C85G,0.217
4,U23G G54U,0.9
5,A8U C32A,0
6,C3G C14A,0.383
7,C4U G34A,0.772
8,C4U G54A,0.791
9,G68C G76A,1.04
10,G17C G76C,0.499
11,C44A G74C,0.237
12,G29C G67A,0.0739
13,A45U G50U,0.793
14,C24A U60A,0.535
15,C3A C57U,0.701
16,C13G G31U,0.0405
17,C48A A77U,0.673
18,G28U G59U,0.106
19,G52C U65G,1.04
20,G25U U27A,0.135
21,G6U G25U,0.117
22,C64A U79G,0.684
23,C41G A87G,0.772
24,G55C C84A,1.07

row,Variant,self-cleavage
1,U79C G82U,0.256
2,C19G G82C,0.0594
3,C21G G35A,0.0817
4,A43C U72A,0.151
5,A43C U72G,0.293
6,G2U A45U,0.0554
7,U9G C22A,0.314
8,G80A A87G,0.424
9,C62A U65A,0.332
10,U20A G38C,0.119
11,C15A C36G,0.145
12,G59U G82U,0.554
13,C26A U69A,0.985
14,C26G G73U,0.291
15,A42G A71C,0.151
16,G5U G74A,0.125
17,U9C A43G,0.755
18,G35U U46A,0.116
19,G50C A56U,0.935
20,G35A C41G,0.222
21,A42C G73A,0.245
22,C36A C64U,0.237
23,G38U A51U,0.308
24,C26U C66A,1.09

row,Variant,self-cleavage
1,G39U U69A,0.492
2,C33A A87U,0.226
3,C64G C85A,0.956
4,A56C A71C,0.997
5,G1U G76A,0.62
6,C30A U60A,0.692
7,C75G A87C,0.073
8,A71G G74A,0.4
9,U20G C66A,0.249
10,C13U U23G,0.287
11,C19A G74A,0.0755
12,U27G G55A,0.806
13,A43C G80C,0.194
14,C15U G67A,0.808
15,G38U C75A,0.208
16,G2C C63G,0.0314
17,C14U C30U,0.489
18,G40U U47A,0.427
19,U23G G67C,0.59
20,G2A G52C,0.112
21,C30U G35A,0.136
22,C22A U79G,0.0573
23,G38U U65C,0.415
24,U20G A51U,0.332

row,Variant,self-cleavage
1,G5A G25A,0
2,C21G G76C,0
3,A56U G81C,0.312
4,G54U U79C,0.513
5,C4G U69G,0.317
6,A43U A77C,0.0519
7,G68U G76U,1.09
8,C32U G35C,0.0573
9,G54U C66U,0.914
10,C32U C85U,0.725
11,C7A C84U,0.366
12,U27G C58U,0.906
13,C33A U37A,0.151
14,A51G G55C,0.481
15,C15A U37G,0.0755
16,C66G A77C,0.262
17,C30U G52U,0.709
18,C13A C19U,0.119
19,G35C C48A,0.269
20,G6C G74U,0.196
21,G10A C62G,0.456
22,A77U A78C,0.332
23,U9A C57G,1.18
24,G5C G29A,0.147

row,Variant,self-cleavage
1,C62U G68C,0.818
2,G5U C15A,0.0831
3,C4G G55A,0.305
4,C44U C48A,0.779
5,C62A C63A,1.03
6,C30A A87G,0.614
7,G11U C21A,0.0329
8,C18U C85G,0.975
9,C49A A70C,0.831
10,C57U C75U,0.188
11,C48U G80A,0.297
12,G10U G74U,0.0594
13,C64G U79G,0.506
14,C19A G81A,0.0449
15,G59A A77U,0.574
16,C15A G76A,0.712
17,U23G C41G,0.597
18,C48G G68C,1.14
19,A51C U65C,0.942
20,C21A A45C,0.0652
21,G6A C58A,0.724
22,G34U G54C,0.0468
